Substitutions are numbered along the chain they refer to. Names and notes keep the numbering of the source. Values joined by “and” are separate entries in the source; they are usually repeats but may differ in a detail not shown here. Equal entries are not always repeated.
Assays:
human MASP-2 [1] = target: T1, human MASP-2 (human, UniProt O00187 16-686); assay: cell-based or functional assay
[2] = target: T2, rat MASP-2 (in rat serum) (rat, UniProt Q9JJS8 20-685); assay: cell-based or functional assay
[3] = target: T3, African Green monkey MASP-2 (in African Green monkey serum) (African Green monkey); assay: cell-based or functional assay
human MASP-2 [4] = target: T1, human MASP-2; assay: titration ELISA on MASP-2 (10 µg/ml)
human MASP-2 [5] = target: T1, human MASP-2; assay: cell-based or functional assay; remark: listed apart in the source
human MASP-2 [6] = target: T1, human MASP-2; assay: cell-based or functional assay; remark: listed apart in the source
[7] = target: T3, African Green monkey MASP-2 (in African …); assay: cell-based or functional assay; remark: listed apart in the source
human MASP-2 [8] = target: T1, human MASP-2; assay: cell-based or functional assay; remark: listed apart in the source
human MASP-2 [9] = target: T1, human MASP-2; assay: cell-based or functional assay; remark: listed apart in the source
[10] = target: T4, human MASP-2A (catalytically inactive human MASP-2, Ser618 to Ala618) (human, UniProt O00187 16-686); assay: SPR (Biacore), scFv captured by anti-cMyc antibody, MASP-2A in solution
T4 construct: the ELISA and Biacore methods say only 'MASP-2A', so a tag may have been present; also called huMASP2A; huMASP-2A

[11] = target: T4, human MASP-2A (catalytically inactive …); assay: ELISA, purified scFv titrated on physically adsorbed human MASP-2A
[12] = target: T4, human MASP-2A (catalytically inactive …); assay: SPR (Biacore), MASP-2A amine coupled to CM5 chip, scFv monomer in solution
human MASP-2 [13] = target: T1, human MASP-2; assay: cell-based or functional assay; remark: listed apart in the source
human MASP-2 [14] = target: T1, human MASP-2; assay: selectivity for human MASP-2 over C1s (method not detailed; see FIG. 16)
[15] = target: T3, African Green monkey MASP-2 (in African …); assay: cell-based or functional assay; remark: listed apart in the source
[16] = target: T2, rat MASP-2 (in rat serum); assay: cell-based or functional assay; remark: listed apart in the source
[17] = target: T4, human MASP-2A (catalytically inactive …); assay: titration ELISA on coated human MASP-2A ('Binding affinity'), IgG4 mutated format
Experimental: (§1) The clones were then purified and re-tested in an ELISA and activity assay as follows. Human MASP-2A was coated at 3 μg/ml in PBS on a maxisorp plate, IgG (45 μg/ml) and Fab′2 (30 μg/ml) were diluted in PBS-Tween to a starting concentration of 300 nM, and further with 3-fold dilutions. IgGs were detected with HRP conjugated Goat α-Human IgG (Southern Biotech) and the F(ab′)2 were detected with HRP-conjugated Goat α-Human IgG H+L (Pierce 31412). The reaction was developed with TMB substrate and stopped with 2M H₂SO₄.

[18] = target: T4, human MASP-2A (catalytically inactive …); assay: titration ELISA on coated human MASP-2A ('Binding affinity'), F(ab′)2
Experimental: as §1

human MASP-2 [19] = target: T1, human MASP-2; assay: cell-based or functional assay; remark: listed apart in the source
human MASP-2 [20] = target: T1, human MASP-2; assay: cell-based or functional assay; remark: listed apart in the source

T1 sequence (O00187 16-686): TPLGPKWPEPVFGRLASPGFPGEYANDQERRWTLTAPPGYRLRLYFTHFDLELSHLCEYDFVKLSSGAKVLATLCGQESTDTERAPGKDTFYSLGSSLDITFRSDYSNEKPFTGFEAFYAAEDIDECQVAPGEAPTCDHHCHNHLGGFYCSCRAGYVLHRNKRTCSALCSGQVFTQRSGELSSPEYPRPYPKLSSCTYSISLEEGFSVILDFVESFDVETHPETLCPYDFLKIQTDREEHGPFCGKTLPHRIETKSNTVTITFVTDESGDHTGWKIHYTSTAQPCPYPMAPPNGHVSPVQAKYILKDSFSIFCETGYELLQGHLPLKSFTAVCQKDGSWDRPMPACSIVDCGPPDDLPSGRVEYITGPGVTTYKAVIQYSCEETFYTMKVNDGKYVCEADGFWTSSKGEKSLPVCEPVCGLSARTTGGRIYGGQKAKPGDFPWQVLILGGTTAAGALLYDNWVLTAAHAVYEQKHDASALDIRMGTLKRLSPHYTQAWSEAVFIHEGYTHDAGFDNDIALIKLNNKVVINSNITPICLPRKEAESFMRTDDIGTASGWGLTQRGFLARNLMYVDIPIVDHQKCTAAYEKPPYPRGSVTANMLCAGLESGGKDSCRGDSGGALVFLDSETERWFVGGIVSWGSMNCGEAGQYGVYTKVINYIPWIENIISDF
T4 sequence (O00187 16-686 S633A): as the sequence (O00187 16-686) above, with S618A counted along it
T2 sequence (Q9JJS8 other isoform, or with tags, fused parts or gaps limits assumed): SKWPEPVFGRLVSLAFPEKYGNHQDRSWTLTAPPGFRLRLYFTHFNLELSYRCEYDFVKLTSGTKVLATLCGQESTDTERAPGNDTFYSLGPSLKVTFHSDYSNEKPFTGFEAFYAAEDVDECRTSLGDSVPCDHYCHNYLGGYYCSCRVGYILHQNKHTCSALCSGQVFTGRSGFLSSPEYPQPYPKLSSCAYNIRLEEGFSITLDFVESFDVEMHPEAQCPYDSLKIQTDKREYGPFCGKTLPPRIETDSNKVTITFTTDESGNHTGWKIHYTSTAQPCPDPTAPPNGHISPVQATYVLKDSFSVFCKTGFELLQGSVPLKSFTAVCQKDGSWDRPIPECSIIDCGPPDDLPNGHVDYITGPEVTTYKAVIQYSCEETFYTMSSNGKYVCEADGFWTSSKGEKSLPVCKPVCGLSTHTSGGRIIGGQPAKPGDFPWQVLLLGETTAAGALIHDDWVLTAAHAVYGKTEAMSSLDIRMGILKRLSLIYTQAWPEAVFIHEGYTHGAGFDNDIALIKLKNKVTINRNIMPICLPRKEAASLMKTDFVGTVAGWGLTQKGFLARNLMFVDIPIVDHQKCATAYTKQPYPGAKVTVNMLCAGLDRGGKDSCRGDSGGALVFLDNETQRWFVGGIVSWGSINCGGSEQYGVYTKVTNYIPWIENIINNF

B1: scFv mother clone 17L20 (scFv)
scFv: EVQLQQSGPGLVKPSQTLSLTCAISGDSVSSKRAAWDWIRQSPSRGLEWLGRTYYRSKWFNDYAISVKSRITINADTSRNQFSLQLNSVTPEDTAVYYCVKSNSGTGAFDSWGQGTLVTVSSKLSGSASAPKLEEGEFSEARVQPGLTQPPSVSVSPGQTARITCSRDKLGDKYVSWYQQKPGQSPVVVMYKDNKRPSGIPERFSGSNSGNTATLTISGTQAMDEADYYCQAWDSSTAGVFGGGTKLTVLAAAGSEQKLISEEDLNSHHHHHH
Functional IC50, C3b deposition, human serum Exp #2 (human MASP-2 [1]): 104 nM | Functional IC50, C3b deposition, human serum Exp #3 (human MASP-2 [1]): 308 nM | Functional IC50, C3b deposition, human serum Exp #4 (human MASP-2 [1]): 199 nM | Functional IC50, C3b deposition, rat serum Exp #1 [2]: 41 nM | Functional IC50, C3b deposition, non-human primate serum Exp #2 [3]: 71.7 nM

B2: scFv mutagenesis clone #35 of 17D20 (scFv)
scFv: QVTLKESGPVLVKPTETLTLTCTVSGFSLSRGKMGVSWIRQPPGKALEWLAHIFSSDEKSYRTSLKSRLTISKDTSKNQVVLTMTNMDPVDTATYYCARIRRGGIDYWGQGTLVTVSSKLSGSASAPKLEEGEFSEARVQPVLTQPPSVSVSPGQTASITCSGDKLGDKFAYWYQQKPGHSPVLVIYQDNKRPSGIPGRFSGSNSGNTATLTISGTQAMDEADYYCQAWDSSTAVFGTGTKVTVLAAAGSEQKLISEEDLNSHHHHHH
notes: the mother scFv entry is used with this change; also called 17D20md#35 (monomer); 17D20md35
Kd (human MASP-2 [4]): 1.2 nM

B3: scFv mother clone 17D20 (scFv)
scFv: B2 scFv with R102A
notes: also called 17D20 (17P10); 17D20mc
Inhibitory activity in Human Serum IC50 (C3b deposition, 0.5% human serum) (human MASP-2 [5]): 157 nM | Functional IC50, C3b deposition, human serum Exp #1 (human MASP-2 [1]): 157 nM | Functional IC50, C3b deposition, human serum Exp #2 (human MASP-2 [1]): 39.9 nM | Functional IC50, C3b deposition, human serum Exp #3 (human MASP-2 [1]): 24.1 nM | Functional IC50, C3b deposition, human serum Exp #4 (human MASP-2 [1]): 23.7 nM | Functional IC50, C3b deposition, rat serum Exp #1 [2]: 434 nM | Functional IC50, C3b deposition, non-human primate serum Exp #1 [3]: 94.8 nM | Functional IC50, C3b deposition, non-human primate serum Exp #2 [3]: 71.8 nM | C3 Assay IC50 in dilute serum (1%), human serum Exp #1 (human MASP-2 [6]): 24 nM | C3 Assay IC50 in dilute serum (1%), human serum Exp #2 (human MASP-2 [6]): 24 nM | C3 Assay IC50 in dilute serum (1%), human serum Exp #3 (human MASP-2 [6]): 40 nM | C3 Assay IC50 in dilute serum (1%), human serum mean (human MASP-2 [6]): 29 nM | C3 Assay IC50, non-human primate serum Exp #1 [7]: 94 nM | C3 Assay IC50, non-human primate serum Exp #2 [7]: 74 nM | C3 Assay IC50, non-human primate serum mean [7]: 84 nM | C3 convertase assay using 1% human serum, IC50 (first experiment) (human MASP-2 [8]): 98.3 nM | C3 convertase assay using 1% human serum, IC50 (second experiment) (human MASP-2 [8]): 151 nM | 1% human serum C3 assay IC50 (human MASP-2 [9]): 38 nM | Kd (human MASP-2 [4]): 1.9 nM | Kd [10]: 0.76 nM | EC50 (read off the curve) [11]: ~2 nM | Kd [12]: 11.3 nM

B4: MoAb #1 (OMS641), 17N16m_d17N9 IgG2 (antibody)
heavy: QVQLQQSGPGLVKPSQTLSLTCAISGDSVSSTSAAWNWIRQSPSRGLEWLGRTYYRSKWYNDYAVSVKSRITINPDTSKNQFSLQLNSVTPEDTAVYYCARDPFGVPFDIWGQGTMVTVSSASTKGPSVFPLAPCSRSTSESTAALGCLVKDYFPEPVTVSWNSGALTSGVHTFPAVLQSSGLYSLSSVVTVPSSNFGTQTYTCNVDHKPSNTKVDKTVERKCCVECPPCPAPPVAGPSVFLFPPKPKDTLMISRTPEVTCVVVDVSHEDPEVQFNWYVDGVEVHNAKTKPREEQFNSTFRVVSVLTVVHQDWLNGKEYKCKVSNKGLPAPIEKTISKTKGQPREPQVYTLPPSREEMTKNQVSLTCLVKGFYPSDIAVEWESNGQPENNYKTTPPMLDSDGSFFLYSKLTVDKSRWQQGNVFSCSVMHEALHNHYTQKSLSLSPGK
light: SYELIQPPSVSVAPGQTATITCAGDNLGKKRVHWYQQRPGQAPVLVIYDDSDRPSGIPDRFSASNSGNTATLTITRGEAGDEADYYCQVWDIATDHVVFGGGTKLTVLGQPKAAPSVTLFPPSSEELQANKATLVCLISDFYPGAVTVAWKADSSPVKAGVETTTPSKQSNNKYAASSYLSLTPEQWKSHRSYSCQVTHEGSTVEKTVAPTECS
notes: also called MoAb#1 (IgG2); 17N16_17N9
Human C3 Assay IC50, 90% human serum (human MASP-2 [13]): 20 nM | Human C4 assay IC50, 90% human serum (human MASP-2 [13]): 30 nM | Selectivity over C1s (human MASP-2 [14]): > 5000 fold

B5: MoAb #2 (OMS642), 17N16m_d17N9 IgG4 (antibody)
heavy: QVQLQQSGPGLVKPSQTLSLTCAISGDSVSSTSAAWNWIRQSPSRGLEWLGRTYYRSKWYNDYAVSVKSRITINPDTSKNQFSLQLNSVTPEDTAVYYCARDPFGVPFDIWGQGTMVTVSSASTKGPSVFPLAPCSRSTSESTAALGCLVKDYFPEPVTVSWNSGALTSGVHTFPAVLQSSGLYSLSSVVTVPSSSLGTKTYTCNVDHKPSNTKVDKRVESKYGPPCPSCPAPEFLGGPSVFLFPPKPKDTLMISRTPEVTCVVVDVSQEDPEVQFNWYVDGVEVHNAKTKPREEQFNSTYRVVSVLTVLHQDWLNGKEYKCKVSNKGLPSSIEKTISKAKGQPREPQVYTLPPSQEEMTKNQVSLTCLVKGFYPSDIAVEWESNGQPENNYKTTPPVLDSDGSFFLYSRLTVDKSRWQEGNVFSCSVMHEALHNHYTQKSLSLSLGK
light: B4 light
notes: also called MoAb#2 (IgG4)
Human C3 Assay IC50, 90% human serum (human MASP-2 [13]): 3 nM | Human C4 assay IC50, 90% human serum (human MASP-2 [13]): 30 nM | African Green Monkey C3 assay IC50 [15]: 26 nM | Inhibition of Rat C3b IC50 [16]: 100 nM | Selectivity over C1s (human MASP-2 [14]): > 5000 fold

B6: MoAb #3 (OMS643), 17N16m_d17N9 IgG4 (mutant, S228P) (antibody)
heavy: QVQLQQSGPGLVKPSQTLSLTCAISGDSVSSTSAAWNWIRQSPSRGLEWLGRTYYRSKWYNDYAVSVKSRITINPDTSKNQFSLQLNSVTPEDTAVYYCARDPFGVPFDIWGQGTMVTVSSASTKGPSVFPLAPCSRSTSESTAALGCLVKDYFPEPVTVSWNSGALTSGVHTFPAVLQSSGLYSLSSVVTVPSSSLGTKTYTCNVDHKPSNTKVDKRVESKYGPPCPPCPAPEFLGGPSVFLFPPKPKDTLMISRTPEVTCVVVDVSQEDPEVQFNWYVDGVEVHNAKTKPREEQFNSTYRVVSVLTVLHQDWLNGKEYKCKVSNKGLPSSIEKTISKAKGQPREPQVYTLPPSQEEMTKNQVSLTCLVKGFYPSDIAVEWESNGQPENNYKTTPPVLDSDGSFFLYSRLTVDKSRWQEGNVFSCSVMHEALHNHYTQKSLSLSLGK
light: B4 light
notes: also called MoAb#3 (IgG4 mutant)
Human C3 Assay IC50, 90% human serum (human MASP-2 [13]): 12 nM | Human C4 assay IC50, 90% human serum (human MASP-2 [13]): 30 nM | Inhibition of Rat C3b IC50 [16]: 200 nM | Selectivity over C1s (human MASP-2 [14]): > 5000 fold

B7: scFv daughter clone 17D20m_d21N11 (scFv)
scFv: QVTLKESGPVLVKPTETLTLTCTVSGFSLSRGKMGVSWIRQPPGKALEWLAHIFSSDEKSYRTSLKSRLTISKDTSKNQVVLTMTNMDPVDTATYYCARIRAGGIDYWGQGTLVTVSSKLSGSASAPKLEEGEFSEARVQPVLTQPPSLSVSPGQTASITCSGEKLGDKYAYWYQQKPGQSPVLVMYQDKQRPSGIPERFSGSNSGNTATLTISGTQAMDEADYYCQAWDSSTAVFGGGTKLTVL
1% human serum C3 assay IC50 (human MASP-2 [9]): 360 nM | 90% human serum C4 assay IC50 (human MASP-2 [9]): ~500 nM | Kd (human MASP-2 [4]): 10 nM | EC50 (read off the curve) [11]: ~3 nM

B8: 17N16 mother clone, IgG4 hinge mutant (S228P) format (antibody, V domains shown)
VH: QVQLQQSGPGLVKPSQTLSLTCAISGDSVSSTSAAWNWIRQSPSRGLEWLGRTYYRSKWYNDYAVSVKSRITINPDTSKNQFSLQLNSVTPEDTAVYYCARDPFGVPFDIWGQGTMVTVSS
VL: SYVLTQPPSVSVAPGQTARITCGGNNIGSKNVHWYQQKPGQAPVLVVYDDSDRPSGIPERFSGSNSGNTATLTVSRVEAGDEADYYCQVWDTTTDHVVFGGGTKLTVL
notes: IgG4 S228P; also called 17N16 IgG4 mutated format
Kd [17]: 0.0206 nM

B9: 17N16 mother clone, F(ab′)2 format (Fab, V domains shown)
VH: B8 VH
VL: B8 VL
notes: also called 17N16 F(ab′)2
Kd [18]: 0.0959 nM

B10: 17D20 mother clone, IgG4 hinge mutant (S228P) format (antibody, V domains shown)
VH: QVTLKESGPVLVKPTETLTLTCTVSGFSLSRGKMGVSWIRQPPGKALEWLAHIFSSDEKSYRTSLKSRLTISKDTSKNQVVLTMTNMDPVDTATYYCARIRAGGIDYWGQGTLVTVSS
VL: QPVLTQPPSVSVSPGQTASITCSGDKLGDKFAYWYQQKPGHSPVLVIYQDNKRPSGIPGRFSGSNSGNTATLTISGTQAMDEADYYCQAWDSSTAVFGTGTKVTVLA
notes: IgG4 S228P; also called 17D20 IgG4 mutated format; 17D20 IgG4 S228P
C4b deposition in 90% human serum, IC50 relative to the C3b deposition assay (human MASP-2 [19]): ~3 fold | C3b deposition assay in 1% human serum, IC50 (human MASP-2 [20]): 11 nM and 27 nM | Kd [17]: 0.0284 nM

B11: 17D20 mother clone, F(ab′)2 format (Fab, V domains shown)
VH: B10 VH
VL: B10 VL
notes: also called 17D20 F(ab′)2
C3 convertase assay using 1% human serum, IC50 (first experiment) (human MASP-2 [8]): 7.3 nM | C3 convertase assay using 1% human serum, IC50 (second experiment) (human MASP-2 [8]): 13.5 nM | Kd [18]: 0.181 nM
